Non-standard residues stand in square brackets, D forms with d. No end group written: not given here. Aib = CC(C)(N)C(=O)O
T1: human GIP receptor (human, UniProt P48546 22-466)
T1 sequence (looked up): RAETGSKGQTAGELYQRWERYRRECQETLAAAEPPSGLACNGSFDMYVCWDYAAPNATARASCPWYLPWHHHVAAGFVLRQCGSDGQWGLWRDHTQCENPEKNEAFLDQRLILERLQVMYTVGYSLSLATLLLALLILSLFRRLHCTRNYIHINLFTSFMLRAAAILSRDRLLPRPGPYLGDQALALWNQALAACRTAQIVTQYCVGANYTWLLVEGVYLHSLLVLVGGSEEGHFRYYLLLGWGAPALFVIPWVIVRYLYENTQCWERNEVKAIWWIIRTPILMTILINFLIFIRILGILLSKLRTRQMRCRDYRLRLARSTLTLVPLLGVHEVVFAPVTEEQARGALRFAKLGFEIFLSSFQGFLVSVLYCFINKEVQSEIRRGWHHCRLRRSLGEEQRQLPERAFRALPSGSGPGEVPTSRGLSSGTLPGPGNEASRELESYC

T2: human neuropeptide Y2 (NPY2) receptor (human, UniProt P49146 1-381)
T2 sequence (looked up): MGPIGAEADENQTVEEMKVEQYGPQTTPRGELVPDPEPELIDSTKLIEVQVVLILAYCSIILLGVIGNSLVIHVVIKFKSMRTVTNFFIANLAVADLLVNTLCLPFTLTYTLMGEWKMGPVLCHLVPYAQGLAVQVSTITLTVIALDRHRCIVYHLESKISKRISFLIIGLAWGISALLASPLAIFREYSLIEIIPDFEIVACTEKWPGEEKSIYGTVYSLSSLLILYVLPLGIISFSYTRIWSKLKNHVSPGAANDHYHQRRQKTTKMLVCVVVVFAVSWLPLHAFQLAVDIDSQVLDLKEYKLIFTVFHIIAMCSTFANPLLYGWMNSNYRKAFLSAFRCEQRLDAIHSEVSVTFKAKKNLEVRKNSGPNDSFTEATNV


Assays:
Experiment in all cases: cell-based or functional assay
human GIP receptor = target: T1, human GIP receptor
[1] = target: T2, human neuropeptide Y2 (NPY2) receptor
human GLP-1 receptor = human GLP-1 receptor (human, UniProt P43220 24-463)

Binder	EC50, CreLuc assay, 0.5% hP (human GIP receptor) [nM]	EC50, CreLuc assay, 100% hP (human GIP receptor) [nM]	EC50, CreLuc assay, 0.5% hP [1] [nM]	EC50, CreLuc assay, 100% hP [1] [nM]	EC50, CreLuc assay, 0.5% hP (human GLP-1 receptor) [nM]	EC50, CreLuc assay, 100% hP (human GLP-1 receptor) [nM]
YXEGTFTSDYSIXLEKQAQXAFVEWLIKGGPSSGASLRHYYNWLTRQRY (Aib at 2, 13, 20; NMeQ 47; K28 side chain: C20DA-gGlu-gGlu-gGlu-gGlu-gGlu-gGlu-eLys; C-terminal NH2) [Compound 85]	0.22	1.11	10.3	34.4	0.15	2.75
YXEGTFTSDYSIXLEKQAQXAFVEWLIKGGPSSGASLRHYLNWLTRQRY (Aib at 2, 13, 20; K28 side chain: C20DA-gGlu-gGlu-gGlu-gGlu-gGlu-gGlu-eLys; C-terminal NH2) [Compound 86]	0.48	1.61	23.7	53.1	0.25	2.47
YXDGTFTSDYSIXLEKQAQXAFVEWLIKGGPSSGASLRHYYNWLTRQRY (Aib at 2, 13, 20; K28 side chain: C20DA-gGlu-gGlu-gGlu-gGlu-gGlu-gGlu-eLys; C-terminal NH2) [Compound 87]	0.58	5.65	20.7	73.4	0.08	2
YXEGTFTSDYSIXLEKQAQXAFVEWLIKGGPSSPESXRHYYNWLTRQRY (Aib at 2, 13, 20, 37; K28 side chain: C20DA-gGlu-gGlu-gGlu-gGlu-gGlu-gGlu-eK; C-terminal NH2) [Compound 10]	0.07	1.25	18.2	42.2	0.11	2.59
YXEGTFTSDYSIXLEKQAQXAFVQWLIKGGPESPASLRHYYNWLTRQRY (Aib at 2, 13, 20; K28 side chain: C20DA-gGlu-gGlu-gGlu-gGlu-gGlu; C-terminal NH2) [Compound 11]	0.17	2.54	10.3	51.5	0.11	6.69
YXEGTFTSDYSIXLEKQAQXAFVQWLIKGGPESPASLRHYYNWLTRQRY (Aib at 2, 13, 20; K28 side chain: C18DA-gGlu-gGlu-gGlu-gGlu-gGlu; C-terminal NH2) [Compound 12]	0.14	1.8	11.9	45.8	0.11	4.76
Y[Aib]EGTFTSDYSI[Aib]LEKQAQ[Aib]AFVEWLIKGGPSSGAS[Aib]RHYYNR[Aib]TRQRY-NH2 (not fully specified (residue 28); also: TFA salt) [Compound 13]	0.09	0.77	9.54	31.5	0.05	0.92
YXEGTFTSDYSIXLEKQAQXAFVQWLIKGGPRYYASLRHYYNWLTRQRY (Aib at 2, 13, 20; K28 side chain: C20DA-gGlu-gGlu-gGlu-gGlu-gGlu-gGlu-eLys; C-terminal NH2) [Compound 14]	0.71	2.22	6.85	28.5	0.4	7.13
YXEGTFTSDYSIXLEKQAQXAFVQWLIKGGPSSYVSLRHYYNWLTRQRY (Aib at 2, 13, 20; K28 side chain: C20DA-gGlu-gGlu-gGlu-gGlu-gGlu-gGlu-eLys; C-terminal NH2) [Compound 15]	0.32	2.43	6.01	15.4	0.16	4.11
YXEGTFTSDYSIXLEXEAQXKFVEWLIKGGPSSGASLRHYYNWLTRQRY (Aib at 2, 13, 16, 20; K28 side chain: C20DA-gGlu-gGlu-gGlu-gGlu-gGlu-gGlu-eLys; C-terminal NH2) [Compound 16]	0.66	4.53	28.8	197	1.48	30.3
YXEGTFTSDYSIXLEKQAQXAFVEWLIKGGPSSGASLRHYLNLXTRQRY (Aib at 2, 13, 20, 44; K28 side chain: C20DA-gGlu-gGlu-gGlu-gGlu-gGlu-gGlu-eLys; C-terminal NH2) [Compound 17]	0.43	2.23	> 100	450	0.14	2.28

Source: patent US20240247080A1, “GLP1/GIP/NPY2 RECEPTOR TRIPLE AGONISTS” (Boehringer Ingelheim International GmbH, priority 2022, published 2024)
